Source: paper PMC10504559

Key:
HY5 = molecular target: T1, HY5 (Arabidopsis thaliana, UniProt O24646 1-168); assay: EMSA
T1 sequence: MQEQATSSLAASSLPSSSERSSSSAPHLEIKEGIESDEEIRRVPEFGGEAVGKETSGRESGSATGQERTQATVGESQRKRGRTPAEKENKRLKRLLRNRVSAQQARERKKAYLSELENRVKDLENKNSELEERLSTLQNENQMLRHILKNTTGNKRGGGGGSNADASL

ABI4 [1] = molecular target: T2, ABI4 (Arabidopsis thaliana, UniProt A0MES8 1-328); assay: competition
ABI4 [2] = molecular target: T2, ABI4; assay: EMSA
RGA = molecular target: T3, RGA (Arabidopsis thaliana, UniProt Q9SLH3 1-587); assay: EMSA
T3 sequence: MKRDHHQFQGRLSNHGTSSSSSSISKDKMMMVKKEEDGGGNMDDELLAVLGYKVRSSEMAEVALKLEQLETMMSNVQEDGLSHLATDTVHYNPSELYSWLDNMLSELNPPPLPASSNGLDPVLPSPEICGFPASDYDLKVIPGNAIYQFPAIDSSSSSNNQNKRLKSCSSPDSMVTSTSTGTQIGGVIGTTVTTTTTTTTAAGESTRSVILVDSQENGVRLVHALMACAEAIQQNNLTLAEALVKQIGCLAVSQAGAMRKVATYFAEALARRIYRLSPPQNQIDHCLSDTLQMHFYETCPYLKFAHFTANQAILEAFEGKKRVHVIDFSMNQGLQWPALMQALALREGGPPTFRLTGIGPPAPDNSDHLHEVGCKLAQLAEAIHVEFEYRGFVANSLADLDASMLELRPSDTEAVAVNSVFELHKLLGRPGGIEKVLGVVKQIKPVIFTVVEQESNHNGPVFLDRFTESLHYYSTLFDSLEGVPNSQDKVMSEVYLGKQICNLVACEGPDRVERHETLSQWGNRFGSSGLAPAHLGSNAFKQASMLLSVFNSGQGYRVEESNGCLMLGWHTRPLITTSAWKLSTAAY

T2 sequence (A0MES8 whole entry): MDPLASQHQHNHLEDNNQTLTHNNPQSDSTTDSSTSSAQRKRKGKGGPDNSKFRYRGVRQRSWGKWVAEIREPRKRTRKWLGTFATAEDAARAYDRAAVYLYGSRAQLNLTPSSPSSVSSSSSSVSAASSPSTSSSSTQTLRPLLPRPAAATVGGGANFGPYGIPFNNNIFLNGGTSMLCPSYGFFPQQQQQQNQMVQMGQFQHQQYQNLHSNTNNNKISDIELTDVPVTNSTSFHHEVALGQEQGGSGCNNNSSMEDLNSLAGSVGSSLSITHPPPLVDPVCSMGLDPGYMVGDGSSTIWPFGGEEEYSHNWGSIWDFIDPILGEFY

B1: GA2ox7 promoter G-box probe (dsDNA)
DNA 1: TTAGGACACAAACACGTGGTTTTTCATAGCATTGAGAAATTATAATAAAT
DNA 2: ATTTATTATAATTTCTCAATGCTATGAAAAACCACGTGTTTGTGTCCTAA
binding result (HY5): binds

B2: GA2ox7 promoter CCAC mutant (m) (dsDNA)
DNA 1: AAACACCCGACCCAATCTAAAAATCTATACATAAGTATACCAATTTATTCTTCTTCTTCA
DNA 2: TGAAGAAGAAGAATAAATTGGTATACTTATGTATAGATTTTTAGATTGGGTCGGGTGTTT
binding result (ABI4 [1]): no binding

B3: GA2ox7 promoter CCAC probe (dsDNA)
DNA 1: AAACACCCGACCCAATCTAAAAATCCCACCATAAGCCACCCAATTTATTCTTCTTCTTCA
DNA 2: TGAAGAAGAAGAATAAATTGGGTGGCTTATGGTGGGATTTTTAGATTGGGTCGGGTGTTT
binding result (ABI4 [2]): binds

B4: EXP2 promoter probe (dsDNA)
DNA 1: GCGGATATGTAATACGTCCACGTGGCATAAAAGTA
DNA 2: TACTTTTATGCCACGTGGACGTATTACATATCCGC
binding result (ABI4 [2]): binds | binding result (RGA): no binding
